Measured values taken from patent publication US20240002497A1 (Merck Sharp & Dohme, published 2024).
Numbering of substitutions follows the chain as printed. Numbers in names are those of the source. Blank lines part the entries; values can stand above or below the binder they belong to.

Key:
[1] = target: T1, huNav157 chimera 14 + β1-β2-β3 (human); assay: binding FACS, HEK FlpIn cells
T1 construct: Chimera of huNav1.7α (extracellular loops and transmembrane helices) and huNav1.5α (intracellular loops); also called Nav157ch14-β1-β2-β3; huNav157 chimera 14-beta1-beta2-beta3

huNav157 chimera 14 = target: T2, huNav157 chimera 14 (human); assay: binding FACS, HEK FlpIn cells
T2 construct: Chimera without β subunits; also called Nav157ch14

[2] = target: T3, huNav1.7α + β1 (human Nav1.7α co-expressed with Navβ1) (human, UniProt Q15858 1-1988; Q07699 19-218); assay: binding FACS, HEKa/β1 cells
T3 construct: also called HEK293 human Nav1.7α + β1; HEKa/β1 Nav1.7α

[3] = target: T4, huNav1.7α (human Nav1.7 alpha subunit, expressed without β subunits) (human, UniProt Q15858 1-1988); assay: binding FACS, HEKa cells
T4 construct: also called HEK293 human Nav1.7α; HEKa Nav1.7α

huNav1.7α + β1 (HEKa/β1) = target: T5, huNav1.7α + β1 (HEKa/β1) (human, UniProt Q15858 1-1988; Q07699 19-218); assay: binding FACS, HEKa/β1 cells
T5 construct: also called HEKa/β1 huNav1.7α
How it was run: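 Assessment used purified FLAG3-tagged ISVD incubated on cells for 30 minutes at 4° C in PBS containing 10% FBS and NaN₃, with cells washed between steps. Propidium iodide (1 μg/mL) staining removed dead cells from analysis.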

huNav1.7α (HEKa) = target: T6, huNav1.7α (HEKa) (human, UniProt Q15858 1-1988); assay: binding FACS, HEKa cells
T6 construct: also called HEKa huNav1.7α
Procedure: Binding of the ISVDs to cell-expressed Nav1.7α was detected via murine anti-Flag (Sigma, catalog #F1804). Briefly, cells were resuspended in FACS buffer (PBS, 10% FBS, NaN₃) and transferred to a 96-well V-bottom plate at 1×10^5 cells/well. Purified FLAG3-tagged ISVD was diluted in FACS buffer and added to the cells for 30 minutes at 4° C. […] Prior to the read-out, the samples were resuspended in 1 μg/mL propidium iodide (Sigma, catalog #P4170) to exclude dead cells. Between each step, the cells were centrifuged for 5 minutes at 200 grams and washed with 100 μL/well FACS buffer.

B1: F010301643 (VHH)
VHH: EVQLVESGGGVVQPGGSLRLSCAASGRILRIGYMRWHRQGAGKQREFVARITDDSATDYADSVKGRFTISRDNAKNTVYLQMNSLRPEDTALYYCEALVTASVRGGSIHSGTYWGQGTLVTVSS
notes: also called F0103387G05(L11V, A14P, D23A, N82bS, N83R, V89L, R105Q)
EC50 [1]: 3.6 nM
Bmax (huNav157 chimera 14): 100%
EC50 (huNav157 chimera 14): 3.7 nM
EC50 [2]: 3.4 nM
Bmax [3]: 100%
EC50 [3]: 4.1 nM

B2: F010301645 (VHH)
VHH: B1 VHH with A23D, G40A
notes: also called F0103387G05(L11V, A14P, G40A, N82bS, N83R, V89L, R105Q)
EC50 [1]: 4.6 nM
Bmax (huNav157 chimera 14): 100%
EC50 (huNav157 chimera 14): 3.9 nM
EC50 [2]: 4.2 nM
Bmax [3]: 100%
EC50 [3]: 4.7 nM

B3: F010301646 (VHH)
VHH: B1 VHH with A23D, A41P
notes: also called F0103387G05(L11V, A14P, A41P, N82bS, N83R, V89L, R105Q)
EC50 [1]: 4.2 nM
Bmax (huNav157 chimera 14): 100%
EC50 (huNav157 chimera 14): 3.1 nM
EC50 [2]: 4.1 nM
Bmax [3]: 100%
EC50 [3]: 4.4 nM

B4: F010301649 (VHH)
VHH: B1 VHH with A23D
notes: also called F0103387G05(L11V, A14P, N82bS, N83R, V89L, R105Q)
EC50 [1]: 4.2 nM
Bmax (huNav157 chimera 14): 100%
EC50 (huNav157 chimera 14): 3.4 nM
EC50 [2]: 4.1 nM
Bmax [3]: 100%
EC50 [3]: 5.3 nM

B5: F010301644 (VHH)
VHH: B1 VHH with A23D, H37Y
notes: also called F0103387G05(L11V, A14P, H37Y, N82bS, N83R, V89L, R105Q)
EC50 [1]: 4.9 nM
Bmax (huNav157 chimera 14): 100%
EC50 (huNav157 chimera 14): 4.4 nM
EC50 [2]: 5 nM
Bmax [3]: 100%
EC50 [3]: 5.7 nM

B6: F010301657 (VHH)
VHH: EVQLVESGGGLVQPGGSLRLSCAASVRPFSTSAMGWFRQAPEKEREAVAGILWNGIVTYYADSVKGRFTISRDNAKNEVYLQMNKLKPEDTAVYYCALDRAYQGRSFSAKEYEYWGQGTLVTVSS
EC50 (huNav1.7α + β1 (HEKa/β1)): 16 nM
EC50 (huNav1.7α (HEKa)): 20 nM

B9: F010301661 (VHH)
VHH: B6 VHH with G50A, A101D, Q103G
EC50 (huNav1.7α + β1 (HEKa/β1)): 18 nM
EC50 (huNav1.7α (HEKa)): 16 nM

B11: F010301659 (VHH)
VHH: B6 VHH with G50A, Q103G, K110Y
EC50 (huNav1.7α + β1 (HEKa/β1)): 12 nM
EC50 (huNav1.7α (HEKa)): 11 nM

Next, values leading:

EC50 (huNav1.7α + β1 (HEKa/β1)): 11 nM
EC50 (huNav1.7α (HEKa)): 8.8 nM
B7: F010301665 (VHH)
VHH: B6 VHH with G50A, Q103G, S124A, S125A

EC50 (huNav1.7α + β1 (HEKa/β1)): 17 nM
EC50 (huNav1.7α (HEKa)): 19 nM
B8: F010301662 (VHH)
VHH: B6 VHH with K110Y

EC50 (huNav1.7α + β1 (HEKa/β1)): 14 nM
EC50 (huNav1.7α (HEKa)): 10 nM
B10: F010301666 (VHH)
VHH: B6 VHH with G50A, A101D

EC50 (huNav1.7α + β1 (HEKa/β1)): 14 nM
EC50 (huNav1.7α (HEKa)): 13 nM
B12: F010301663 (VHH)
VHH: B6 VHH with Q103G

EC50 (huNav1.7α + β1 (HEKa/β1)): 18 nM
EC50 (huNav1.7α (HEKa)): 13 nM
B13: F010301664 (VHH)
VHH: B6 VHH with A101D
